US20050100554A1 (published 2005)

B1: HPV 16 E1-E4 (other)
chain: MADPAAATKYPLLKLLGSTWPTTPPRPIPKPSPWAPKKHRRLSSDQDQSQTPETPATPLSCCTETQWTVLQSSLHLTAHTKDGLTVIVTLHP
notes: also called cbe_251059
B2: Human papillomavirus 11 E1 (other)
chain: MADDSGTENEGSGCTGWFMVEAIVEHTTGTQISEDEEEEVEDSGYDMVDFIDDRHITQNSVEAQALFNRQEADAHYATVQDLKRKYLGSPYVSPISNVANAVESEISPRLDAIKLTTQPKKVKRRLFETRELTDSGYGYSEVEAATQVEKHGDPENGGDGQERDTGRDIEGEGVEHREAEAVDDSTREHADTSGILELLKCKDIRSTLHGKFKDCFGLSFVDLIRPFKSDRTTCADWVVAGFGIHHSIADAFQKLIEPLSLYAHIQWLTNAWGMVLLVLIRFKVNKSRCTVARTLGTLLNIPENHMLIEPPKIQSGVRALYWFRTGISNASTVIGEAPEWITRQTVIEHSLADSQFKLTEMVQWAYDNDICEESEIAFEYAQRGDFDSNARAFLNSNMQAKYVKDCAIMCRHYKHAEMKKMSIKQWIKYRGTKVDSVGNWKPIVQFLRHQNIEFIPFLSKLKLWLHGTPKKNCIAIVGPPDTGKSCFCMSLIKFLGGTVISYVNSCSHFWLQPLTDAKVALLDDATQPCWTYMDTYMRNLLDGNPMSIDRKHRALTLIKCPPLLVTSNIDISKEEKYKYLHSRVTTFTFPNPFPFDRNGNAVYELSDANWKCFFERLSSSLDIEDSEDEEDGSNSQAFRCVPGSVVRTL
notes: also called HPV 11 E1; cbe_251663
B4: Human papillomavirus 11 E7 (other)
chain: MHGRLVTLKDIVLDLQPPDPVGLHCYEQLEDSSEDEVDKVDKQDAQPLTQHYQILTCCCGCDSNVRLVVECTDGDIRQLQDLLLGTLNIVCPICAPKP
notes: also called HPV 11 E7; cbe_250834

Columns and labels:
[1] = biological target: T1, PEST-containing nuclear protein (human, UniProt Q8WW12 2-178); assay: Y2H; INT ID 140
T1 construct: also called pcnp; PCNP
T1 sequence: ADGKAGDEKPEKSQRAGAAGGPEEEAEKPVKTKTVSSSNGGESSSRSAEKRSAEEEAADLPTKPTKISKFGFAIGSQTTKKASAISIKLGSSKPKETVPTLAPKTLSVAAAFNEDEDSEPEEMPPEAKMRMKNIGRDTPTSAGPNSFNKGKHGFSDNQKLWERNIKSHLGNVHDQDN

PCDH1 = biological target: T2, PCDH1 (human, UniProt Q08174 58-1060); assay: Y2H; INT ID 142
T2 construct: also called cbe_4269156
T2 sequence: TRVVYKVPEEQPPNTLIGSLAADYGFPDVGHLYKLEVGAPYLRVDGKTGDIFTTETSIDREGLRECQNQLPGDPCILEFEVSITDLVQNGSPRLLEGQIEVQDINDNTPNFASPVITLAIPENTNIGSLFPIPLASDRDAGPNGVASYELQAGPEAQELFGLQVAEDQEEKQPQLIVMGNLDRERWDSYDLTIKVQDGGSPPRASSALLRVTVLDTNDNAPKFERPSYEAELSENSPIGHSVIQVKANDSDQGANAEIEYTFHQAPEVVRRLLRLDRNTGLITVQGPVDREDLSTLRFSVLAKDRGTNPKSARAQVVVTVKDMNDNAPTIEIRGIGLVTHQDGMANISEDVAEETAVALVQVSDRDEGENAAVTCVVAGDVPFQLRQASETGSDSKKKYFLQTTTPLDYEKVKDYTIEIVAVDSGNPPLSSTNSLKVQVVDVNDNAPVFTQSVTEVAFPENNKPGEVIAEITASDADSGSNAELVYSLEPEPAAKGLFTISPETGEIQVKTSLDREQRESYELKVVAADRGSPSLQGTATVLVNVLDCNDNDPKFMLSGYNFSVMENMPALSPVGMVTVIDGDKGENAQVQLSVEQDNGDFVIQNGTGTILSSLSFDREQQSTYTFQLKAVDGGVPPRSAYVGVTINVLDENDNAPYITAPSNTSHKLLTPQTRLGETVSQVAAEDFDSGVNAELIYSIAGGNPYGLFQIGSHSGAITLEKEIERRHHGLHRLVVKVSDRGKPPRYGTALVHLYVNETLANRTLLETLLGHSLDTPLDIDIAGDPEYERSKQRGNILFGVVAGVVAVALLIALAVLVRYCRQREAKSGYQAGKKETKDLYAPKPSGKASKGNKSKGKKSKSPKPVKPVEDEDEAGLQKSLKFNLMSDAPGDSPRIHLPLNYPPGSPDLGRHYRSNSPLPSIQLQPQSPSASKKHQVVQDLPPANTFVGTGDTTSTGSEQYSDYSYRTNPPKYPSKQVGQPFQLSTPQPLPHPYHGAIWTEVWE

RABIF = biological target: T3, RABIF (human, UniProt P47224 1-123); assay: Y2H; INT ID 139
T3 construct: also called cbe_3472582
T3 sequence: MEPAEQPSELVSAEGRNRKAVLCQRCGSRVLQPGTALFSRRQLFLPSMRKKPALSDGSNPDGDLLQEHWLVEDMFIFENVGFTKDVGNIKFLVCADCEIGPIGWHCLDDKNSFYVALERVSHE

DKFZP434I1735 protein = biological target: T4, DKFZP434I1735 protein (human, UniProt Q86XA9 451-2040); assay: Y2H; INT ID 50
T4 construct: also called cbe_3643627
T4 sequence (Q86XA9 451-2040 V880M limits assumed): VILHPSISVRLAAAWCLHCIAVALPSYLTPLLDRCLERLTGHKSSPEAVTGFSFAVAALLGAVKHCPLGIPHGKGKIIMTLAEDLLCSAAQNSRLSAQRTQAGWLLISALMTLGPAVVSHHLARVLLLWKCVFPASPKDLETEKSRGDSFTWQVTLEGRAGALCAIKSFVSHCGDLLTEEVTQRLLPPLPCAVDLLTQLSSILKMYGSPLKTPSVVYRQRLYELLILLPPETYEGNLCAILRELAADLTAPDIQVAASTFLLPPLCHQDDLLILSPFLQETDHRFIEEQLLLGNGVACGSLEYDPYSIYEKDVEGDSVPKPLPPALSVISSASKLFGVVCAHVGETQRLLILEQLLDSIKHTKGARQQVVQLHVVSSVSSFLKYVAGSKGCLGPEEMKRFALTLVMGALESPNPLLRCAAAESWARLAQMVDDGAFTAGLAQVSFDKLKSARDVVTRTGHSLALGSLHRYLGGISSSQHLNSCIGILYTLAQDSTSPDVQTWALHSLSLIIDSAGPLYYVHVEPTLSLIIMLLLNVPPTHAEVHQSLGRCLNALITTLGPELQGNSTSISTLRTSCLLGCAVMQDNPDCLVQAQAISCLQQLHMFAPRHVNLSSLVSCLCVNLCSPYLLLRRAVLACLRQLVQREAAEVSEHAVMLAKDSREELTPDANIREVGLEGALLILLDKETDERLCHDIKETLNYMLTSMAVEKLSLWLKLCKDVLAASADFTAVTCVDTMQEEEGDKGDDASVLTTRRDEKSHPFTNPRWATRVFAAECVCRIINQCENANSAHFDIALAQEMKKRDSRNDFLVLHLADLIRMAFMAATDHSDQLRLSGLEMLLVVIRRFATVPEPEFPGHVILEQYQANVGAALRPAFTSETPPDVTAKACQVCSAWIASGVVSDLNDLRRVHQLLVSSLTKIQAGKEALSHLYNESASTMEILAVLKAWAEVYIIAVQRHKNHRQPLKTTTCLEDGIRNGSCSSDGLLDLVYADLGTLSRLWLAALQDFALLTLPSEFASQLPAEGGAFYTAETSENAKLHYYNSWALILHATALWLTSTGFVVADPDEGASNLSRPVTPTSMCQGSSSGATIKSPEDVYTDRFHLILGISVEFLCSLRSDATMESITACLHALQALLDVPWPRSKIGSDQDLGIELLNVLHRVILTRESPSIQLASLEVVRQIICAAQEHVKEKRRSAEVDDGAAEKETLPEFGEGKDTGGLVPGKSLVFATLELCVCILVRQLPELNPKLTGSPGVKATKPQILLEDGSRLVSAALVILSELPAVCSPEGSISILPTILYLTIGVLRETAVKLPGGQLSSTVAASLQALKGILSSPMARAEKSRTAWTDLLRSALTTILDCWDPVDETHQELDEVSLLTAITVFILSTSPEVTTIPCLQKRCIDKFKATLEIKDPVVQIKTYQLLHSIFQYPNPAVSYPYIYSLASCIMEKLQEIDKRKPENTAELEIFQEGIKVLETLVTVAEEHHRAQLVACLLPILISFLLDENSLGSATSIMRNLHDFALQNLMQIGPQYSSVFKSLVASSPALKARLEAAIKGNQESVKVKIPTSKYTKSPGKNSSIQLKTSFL

[2] = biological target: B4; assay: Y2H; INT ID 38
PTPN21 = biological target: T5, PTPN21 (human, UniProt Q16825 1-1174); assay: Y2H; INT ID 41
T5 construct: also called cbe_4260642
T5 sequence: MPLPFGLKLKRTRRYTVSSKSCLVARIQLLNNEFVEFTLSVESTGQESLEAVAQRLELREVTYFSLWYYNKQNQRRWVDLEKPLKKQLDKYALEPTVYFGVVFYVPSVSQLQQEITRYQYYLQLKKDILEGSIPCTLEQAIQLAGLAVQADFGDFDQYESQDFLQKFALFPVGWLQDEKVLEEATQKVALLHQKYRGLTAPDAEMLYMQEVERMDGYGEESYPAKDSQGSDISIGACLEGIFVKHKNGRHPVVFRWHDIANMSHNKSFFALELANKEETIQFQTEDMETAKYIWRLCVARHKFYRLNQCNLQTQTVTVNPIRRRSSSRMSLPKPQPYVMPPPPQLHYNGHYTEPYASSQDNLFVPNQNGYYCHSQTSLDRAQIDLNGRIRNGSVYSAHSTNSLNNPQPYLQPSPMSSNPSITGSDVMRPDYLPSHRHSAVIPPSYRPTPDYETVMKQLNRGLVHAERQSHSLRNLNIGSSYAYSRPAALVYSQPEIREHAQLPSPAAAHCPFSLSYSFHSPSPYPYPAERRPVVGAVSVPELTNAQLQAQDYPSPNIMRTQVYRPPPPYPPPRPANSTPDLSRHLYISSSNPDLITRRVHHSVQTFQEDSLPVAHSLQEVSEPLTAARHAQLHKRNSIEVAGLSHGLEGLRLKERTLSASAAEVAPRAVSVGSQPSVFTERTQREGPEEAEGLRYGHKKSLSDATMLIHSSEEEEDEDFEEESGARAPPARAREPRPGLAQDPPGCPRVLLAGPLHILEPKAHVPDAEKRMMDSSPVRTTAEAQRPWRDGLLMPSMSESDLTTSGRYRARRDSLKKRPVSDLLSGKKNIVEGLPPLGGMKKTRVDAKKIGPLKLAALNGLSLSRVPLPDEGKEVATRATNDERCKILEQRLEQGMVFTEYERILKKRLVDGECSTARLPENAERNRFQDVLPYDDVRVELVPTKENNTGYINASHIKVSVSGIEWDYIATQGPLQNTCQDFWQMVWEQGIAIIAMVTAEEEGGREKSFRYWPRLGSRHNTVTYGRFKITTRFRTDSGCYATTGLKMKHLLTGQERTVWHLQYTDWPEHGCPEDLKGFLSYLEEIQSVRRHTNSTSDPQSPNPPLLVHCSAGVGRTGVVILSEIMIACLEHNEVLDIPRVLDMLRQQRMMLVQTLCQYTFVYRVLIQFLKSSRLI

[3] = biological target: T6, signal-induced proliferation-associated 1 like 1 (human, UniProt O43166 1-1804); assay: Y2H; INT ID 37
T6 construct: also called KIAA0440; cbe_3056756
T6 sequence (O43166 whole entry): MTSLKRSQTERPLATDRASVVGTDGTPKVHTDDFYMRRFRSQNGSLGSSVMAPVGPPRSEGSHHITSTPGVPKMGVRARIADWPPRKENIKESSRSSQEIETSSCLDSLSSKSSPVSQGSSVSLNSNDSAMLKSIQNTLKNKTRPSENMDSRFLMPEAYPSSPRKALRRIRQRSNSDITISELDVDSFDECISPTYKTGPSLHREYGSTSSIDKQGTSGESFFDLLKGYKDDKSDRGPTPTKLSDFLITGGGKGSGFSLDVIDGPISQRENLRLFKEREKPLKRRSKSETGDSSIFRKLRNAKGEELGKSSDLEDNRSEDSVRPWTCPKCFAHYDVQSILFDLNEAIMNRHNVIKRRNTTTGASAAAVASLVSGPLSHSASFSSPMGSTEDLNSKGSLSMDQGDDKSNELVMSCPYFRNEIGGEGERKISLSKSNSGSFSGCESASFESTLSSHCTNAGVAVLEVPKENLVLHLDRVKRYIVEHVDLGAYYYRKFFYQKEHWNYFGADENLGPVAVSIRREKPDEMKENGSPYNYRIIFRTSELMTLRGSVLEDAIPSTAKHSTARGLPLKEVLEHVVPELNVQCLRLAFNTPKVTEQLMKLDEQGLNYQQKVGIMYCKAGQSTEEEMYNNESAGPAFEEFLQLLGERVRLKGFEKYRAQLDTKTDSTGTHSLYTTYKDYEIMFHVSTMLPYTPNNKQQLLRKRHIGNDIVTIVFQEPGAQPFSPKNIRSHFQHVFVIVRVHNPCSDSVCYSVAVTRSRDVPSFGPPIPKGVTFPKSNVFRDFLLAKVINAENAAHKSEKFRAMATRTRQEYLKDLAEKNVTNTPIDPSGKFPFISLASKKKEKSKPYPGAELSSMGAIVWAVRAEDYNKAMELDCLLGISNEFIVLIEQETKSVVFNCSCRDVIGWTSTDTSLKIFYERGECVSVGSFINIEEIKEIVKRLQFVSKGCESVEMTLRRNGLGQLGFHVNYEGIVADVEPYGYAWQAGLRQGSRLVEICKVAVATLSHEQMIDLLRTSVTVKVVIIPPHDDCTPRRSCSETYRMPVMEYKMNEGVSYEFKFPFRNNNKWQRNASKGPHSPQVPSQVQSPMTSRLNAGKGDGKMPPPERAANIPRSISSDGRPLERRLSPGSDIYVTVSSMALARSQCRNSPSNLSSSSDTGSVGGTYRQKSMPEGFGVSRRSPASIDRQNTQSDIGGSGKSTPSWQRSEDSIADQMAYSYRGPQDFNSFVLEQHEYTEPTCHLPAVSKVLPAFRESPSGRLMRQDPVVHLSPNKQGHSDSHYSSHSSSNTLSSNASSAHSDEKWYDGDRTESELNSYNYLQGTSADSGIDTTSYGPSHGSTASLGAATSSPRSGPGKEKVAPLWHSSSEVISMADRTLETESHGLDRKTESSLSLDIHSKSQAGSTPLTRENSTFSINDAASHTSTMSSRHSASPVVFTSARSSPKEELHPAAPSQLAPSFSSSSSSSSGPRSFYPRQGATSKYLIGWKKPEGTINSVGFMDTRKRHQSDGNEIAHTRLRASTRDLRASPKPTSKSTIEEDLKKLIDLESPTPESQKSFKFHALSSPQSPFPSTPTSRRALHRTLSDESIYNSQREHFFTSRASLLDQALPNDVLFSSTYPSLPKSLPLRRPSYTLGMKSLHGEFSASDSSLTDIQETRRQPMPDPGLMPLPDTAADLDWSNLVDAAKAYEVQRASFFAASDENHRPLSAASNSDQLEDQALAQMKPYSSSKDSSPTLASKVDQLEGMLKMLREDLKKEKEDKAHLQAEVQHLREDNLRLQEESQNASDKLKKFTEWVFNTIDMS

ITGB4 = biological target: T7, ITGB4 (human, UniProt P16144 28-1822); assay: Y2H; INT ID 49
T7 construct: also called cbe_4280774

[4] = biological target: B2; assay: Y2H; INT ID 51
HPV 16 E1-E4 = biological target: B1; assay: Y2H; INT ID 141

B1
binding result [1]: binds | binding result (PCDH1): binds | binding result (RABIF): binds

B2
binding result (DKFZP434I1735 protein): binds

B3: gbh_af252829 (other)
chain: MGKKQNRKTGNSKTQSTSPPPKERSSSPATDQSWMENDFDELREEGFRRSNYSELREDIQTKGKEVENFEKNLEECITRITNTEKCLKELMELKTKARELREECRSLRSQCDQLEERVSAMEDEMNEMKQEGKFREKRIKRNEQSLQEIWDYVKRPNLRLIGVPESDAENGTKLENTLQDIIQETFPNLARQANVQIQEIQRTPQRYSSRRATPRHIIVRFTKVEMKEKMLRAAREKGRVTLKGKPIRLTADLSAETLQARREWGPILNILKEKNFQPRISYPAKLSFISEGEIKYFTDKQMLTDFVTSRPALKELLKEALNMERNNRYQPLQNHAKM
notes: also called Homo sapiens chromosome 8 clone BAC 495D4 map 8q24; cbe_3454406
binding result [2]: binds

B4
binding result (PTPN21): binds | binding result [3]: binds | binding result (ITGB4): binds

B5: proteosome (prosome, macropain) subunit, beta type, 3 (other)
chain: SIMSYNGGAVMAMKGKNCVAIAADRRFGIQAQLVTTDFQKIFPMGDRLYIGLAGLATDVQTVAQRLKFRLNLYELKEGRQIKPYTLMSMVANLLYEKRFGPYYTEPVIAGLDPKTFKPFICSLDLIGCPMVTDDFVVSGTCAEQMYGMCESLWEPNMDPDHLFETISQAMLNAVDRDAVSGMGVIVHIIEKDKITTRTLKARMD
notes: also called PSMB3; cbe_3842044
binding result [4]: binds

B6: hypothetical protein FLJ20343 (other)
chain: MAQPHTTSVPYFARSPAPPPPSRSGAPPQPPATLRPSRRRTRPPRPADRRDAPADCAYLWRILTPRRGRARRSDVGARHRACGRRDVLLSRQGPANPEGARRVVGGQERVWPAVRRGRGGSMFRLLSWSLGRGFLRAAGRRCRGCSARLLPGLAGGPGPEVQVPPSRVAPHGRGPGLLPLLAALAWFSRPAAAEEEEQQGADGAAAEDGADEAEAEIIQLLKRAKLSIMKDEPEEAELILHDALRLAYQTDNKKAITYTYDLMANLAFIRGQLENAEQLFKATMSYLLGGGMKQEDNAIIEISLKLASIYAAQNRQEFAVAGYEFCISTLEEKIEREKELAEDIMSVEEKANTHLLLGMCLDACARYLLFSKQPSQAQRMYEKALQISEEIQGERHPQTIVLMSDLATTLDAQGRFDEAYIYMQRASDLARQINHPELHMVLSNLAAVLMHRERYTQAKEIYQEALKQAKLKKDEISVQHIREELAELSKKSRPLTNSVKL
notes: also called cbe_3880186
binding result (HPV 16 E1-E4): binds
